The results in this text go back to patent US8530235B2, “Medium that supports culture of an oocyte and modulation of granulosa cell apoptosis” (Adelaide Research & Innovation Pty Ltd., priority 2005, dated 2013).

The test system of experiment [1] is Smad 3-responsive CAGA-luciferase reporter. Description: Smad 3-responsive CAGA-luciferase reporter in mural granulosa cells from large antral follicles. Type of experiment: cell-based, marmoset monkey, Callithrix jacchus. Particulars: 48 h; 0.5 ng/ml TGFβ1, 88-265 ng/ml GDF9, 50 ng/ml BMP7 or 60 mouse oocytes. As to the method:
(§1) FIGS. 18A and 18B show the activation of the TGF-β signalling pathway by GDF9 and oocytes. MGC from large follicles were transiently transfected with either a Smad 3-responsive CAGA-luciferase reporter construct (A) or a Smad 1-responsive BRE-luciferase reporter construct (B). Cells were subsequently left untreated, treated with 0.5 ng/ml TGFβ1, 88-265 ng/ml GDF9, 50 ng/ml BMP7 or co-cultured with 60 mouse oocytes. Cells were cultured for 48 h after which time luciferase activity was measured from cell extracts. Bars represent means+/− SEM from 3 replicate experiments expressed as a fold change relative to control.
(§2) Luciferase reporter constructs responsive to specific phosphorylated Smads were used to detect the activation of mural GC Smad proteins by recombinant GDF9 Mural GCs were collected and processed as described above, except cells were given a final wash in DMEM(MP Biomedicals, Seven Hills, Australia)+2% FCS (Trace Biosciences, Castle Hill, Australia). Following the final wash, cells were transferred to individual wells of a 96-well plate (Falcon) and cultured at 1.6×10^5 cells/ml. After 4 hours of culture, cells were transiently transfected with 50 ng of luciferase reporter construct DNA using Fugene 6 (Roche Diagnostics, Castle Hill, Australia). 18 hours after transfection, medium was aspirated from cells and replaced with DMEM supplemented with 0.1% FCS. Various ligands were added to cells at this point (see below) and the culture period extended for a further 48 hours. Experiments were terminated by removing media from wells and freezing plates at −20° C. […]
(§3) Seven adult female marmosets were primed with […] for 6 days, whole ovaries were removed on day 7, follicles manually excised, and GC were then collected from 3 size classes: periantral (PA; 0.42-0.66 mm), small antral (SA; 0.66-1.5 mm) and large antral (LA; >1.5 mm). […] In order to determine the effects of GDF9 on marmoset GC proliferation, we employed a GC bioassay whereby after 24 h ^3H-thymidine incorporation is assessed as an indicator of DNA synthesis and cellular proliferation. […]
A general note: In a reporter assay the amount or activity of a reporter protein is the signal.

The subject of experiment [2] is Smad 1-responsive BRE-luciferase reporter. Description: Smad 1-responsive BRE-luciferase reporter in mural granulosa cells from large antral follicles. Type of experiment: cell-based, marmoset monkey, Callithrix jacchus. Particulars: 48 h; 0.5 ng/ml TGFβ1, 88-265 ng/ml GDF9, 50 ng/ml BMP7 or 60 mouse oocytes. As to the method: as §1, §2, §3
The test system of the next experiment is mural granulosa cells. Description: Mural granulosa cell DNA synthesis, 3H-thymidine incorporation. The experiment is classed as cell-based, marmoset monkey, Callithrix jacchus. The conditions noted are these: peri antral, small antral and large antral follicles; most notably small follicles, synergism with IGF1. Here is the method:
Mural GC from large antral follicles were cultured for 24h and thymidine incorporation was stimulated with 175 ng/ml GDF9. […] Bars/points represent means+/−SEM from 3 replicate experiments expressed as a fold change relative to control.
Follicles were manually excised and separated into 3 size classes: periantral (PA; 0.42-0.66 mm), small antral (SA; 0.66-1.5 mm) and large antral (LA; >1.5 mm). GCs from each follicle size were collected and pooled, then washed twice in bicarbonate-buffered tissue culture medium-199 (B-TCM) supplemented with 0.3 mg/ml of polyvinyl alcohol (PVA, Sigma). Depending on the individual experiments, mural GCs (1×10^5 cells/ml), hormones, inhibitors and media were added to wells of 96-well plates (Falcon) to give a final volume of 125 μl. Within each experiment, all treatments were carried out in at least duplicate wells and each experiment was replicated on at least 3 occasions. Cells were cultured in an atmosphere of 37° C., 96% humidity in 5% CO2 in air for 18 hours, followed by a further 6 hour pulse of 15.4 kBq tritiated thymidine (3H-thymidine, ICN) under the same conditions.
Seven adult female marmosets were primed with […] for 6 days, whole ovaries were removed on day 7, follicles manually excised, and GC were then collected from 3 size classes: periantral (PA; 0.42-0.66 mm), small antral (SA; 0.66-1.5 mm) and large antral (LA; >1.5 mm). Four different approaches were utilized to examine GDF9 function in GC. […] To examine the GDF9 signalling pathway, cultured GC from LA follicles were transfected with either a CAGA-luciferase or BRE-luciferase reporter construct and treated with various TGF-β superfamily growth factors or co-cultured with mouse oocytes. In order to determine the effects of GDF9 on marmoset GC proliferation, we employed a GC bioassay whereby after 24 h ^3H-thymidine incorporation is assessed as an indicator of DNA synthesis and cellular proliferation. […] In another experiment, GC were treated with an increasing dose of SB431542, an activin-like kinase (ALK) 4/5/7 inhibitor, in the presence of GDF9+/−IGF1.
Background: Incorporation of labelled thymidine or its analogues reports DNA synthesis.

For the next experiment, the system named is cumulus-oocyte complexes. Description: Study V: oocyte IVM with GDF9, cumulus expansion and embryo development. Type of experiment: cell-based, mice. Particulars: 200 ng/ml GDF9 with FSH/EGF. As to the method:
(§4) Oocytes (n=1106) were then fertilised and cultured to the blastocyst stage in G1.2/G2.2 medium at 37° C. in 6% CO2 5% O2. Blastocysts were pooled and either transferred to pseudo-pregnant Swiss females or differentially stained. Pregnancy outcome was assessed on Day 15 of pregnancy.

A short description of experiment [3]: Study V: pregnancy outcome after transfer of blastocysts to pseudo-pregnant females. Type of experiment: in vivo, mice. Particulars: oocytes matured with 200 ng/ml GDF9, Day 15 of pregnancy. As to the method: as §4

B1: GDF-9: Recombinant mouse GDF-9 produced in-house in transfected 293H cells, partially purified by HIC (protein, UniProt Q07105 307-441, looked up)
Growth/differentiation factor …: GQKAIRSEAKGPLLTASFNLSEYFKQFLFPQNECELHDFRLSFSQLKWDNWIVAPHRYNPRYCKGDCPRAVRHRYGSPVHTMVQNIIYEKLDPSVPRPSCVPGKYSPLSVLTIEPDGSIAYKEYEDMIATRCTCR
For B1, the “CAGA-luciferase activity above control levels” value in experiment [1] worked out at 5 fold. Also, in experiment [2], the “BRE-luciferase activity compared to control levels” value was “not activated”. Besides, the “GC DNA synthesis” value with mural granulosa cells is on record as “stimulates GC DNA synthesis in all follicle sizes”. The “fertilisation, rate of development or blastocyst percentages” value with cumulus-oocyte complexes is “no significant effect”. For the same molecule, the “blastocyst total cell number” value with cumulus-oocyte complexes (P=0.05) was “significantly increased”. This molecule also yielded a cumulus expansion index in the experiment on cumulus-oocyte complexes (vs 2.4±0.1) of 3.1±0.1. The same molecule gave a blastocyst percentages with cumulus-oocyte complexes (vs 75%, no significant effect) of 83%. In experiment [3] (vs 21%, P=0.04), this molecule registered a fetal development of 39%. The molecule further displayed an implantation in experiment [3] (vs 77%, not affected) of 83%.
